B1: LRP2 CR89 Y1042W R1088D (receptor)
chain: PTEQCGLFSFPCKNGRCVPNYWLCDGVDDCHDNSDEQLCGTLNNTCSSSAFTCGHGECIPAHWRCDKDNDCVDGSDEHNCPTHA
notes: also called WVWD; not shown: N-terminal hexahistidine and S-peptide tag stretch of pET30(+)a
B2: LRP2 CR89 Y1042W V1047D (receptor)
chain: PTEQCGLFSFPCKNGRCVPNYWLCDGDDDCHDNSDEQLCGTLNNTCSSSAFTCGHGECIPAHWRCDKRNDCVDGSDEHNCPTHA
notes: also called WDWR; not shown: N-terminal hexahistidine and S-peptide tag stretch of pET30(+)a
B3: RAP d3 K270E (ligand, human, UniProt P30533 235-353, looked up)
chain: LDRLRRVSHQGYSTEAEFEEPRVIDLWDLAQSANLTDKELEAFREELKHFEAKIEKHNHYQKQLEIAHEELRHAESVGDGERVSRSREKHALLEGRTKELGYTVKKHLQDLSGRISRAR
notes: range 201-319 (mature RAP numbering); Forward mutant of m1; same construct; also called RAP K270E; not shown: N-terminal hexahistidine and S-peptide tags of pET30(+)a
B4: RAP d3 E251K, K256A, K270E (ligand, human, UniProt P30533 235-353, looked up)
chain: LDRLRRVSHQGYSTEAEFEEPRVIDLWDLAQSANLTDKELEAFREELKHFKAKIEAHNHYQKQLEIAHEELRHAESVGDGERVSRSREKHALLEGRTKELGYTVKKHLQDLSGRISRAR
notes: range 201-319 (mature RAP numbering); Forward mutant of m1; same construct; also called RAP E251K, K256A, K270E; not shown: N-terminal hexahistidine and S-peptide tags of pET30(+)a
B5: RAP d3 E217K (ligand, human, UniProt P30533 235-353, looked up)
chain: LDRLRRVSHQGYSTEAKFEEPRVIDLWDLAQSANLTDKELEAFREELKHFEAKIEKHNHYQKQLEIAHEKLRHAESVGDGERVSRSREKHALLEGRTKELGYTVKKHLQDLSGRISRAR
notes: range 201-319 (mature RAP numbering); Forward mutant of m1; same construct; also called RAP E217K; not shown: N-terminal hexahistidine and S-peptide tags of pET30(+)a
B6: RAP d3 E251K (ligand, human, UniProt P30533 235-353, looked up)
chain: LDRLRRVSHQGYSTEAEFEEPRVIDLWDLAQSANLTDKELEAFREELKHFKAKIEKHNHYQKQLEIAHEKLRHAESVGDGERVSRSREKHALLEGRTKELGYTVKKHLQDLSGRISRAR
notes: range 201-319 (mature RAP numbering); Forward mutant of m1; same construct; also called RAP E251K; not shown: N-terminal hexahistidine and S-peptide tags of pET30(+)a
B7: RAP d3 E251K, K270E (ligand, human, UniProt P30533 235-353, looked up)
chain: LDRLRRVSHQGYSTEAEFEEPRVIDLWDLAQSANLTDKELEAFREELKHFKAKIEKHNHYQKQLEIAHEELRHAESVGDGERVSRSREKHALLEGRTKELGYTVKKHLQDLSGRISRAR
notes: range 201-319 (mature RAP numbering); Forward mutant of m1; same construct; also called RAP E251K, K270E; not shown: N-terminal hexahistidine and S-peptide tags of pET30(+)a
B8: RAP d3 H249Y (ligand, human, UniProt P30533 235-353, looked up)
chain: LDRLRRVSHQGYSTEAEFEEPRVIDLWDLAQSANLTDKELEAFREELKYFEAKIEKHNHYQKQLEIAHEKLRHAESVGDGERVSRSREKHALLEGRTKELGYTVKKHLQDLSGRISRAR
notes: range 201-319 (mature RAP numbering); Forward mutant of m1; same construct; also called RAP H249Y; not shown: N-terminal hexahistidine and S-peptide tags of pET30(+)a
B9: MegaRAP1 d3 (designed binder)
chain: LDRLRRVSHQGYTTEAKFEEPRVIDLWDLAQSANLTDKELEAFREELKYFKAKIEAHNHYQKQLEIAHEELRHAESVGDGERVSRSREKHALLEGRTKELGYTVKKHLQDLSGRISRAR
notes: range 201-319 (mature RAP numbering); d3 of the variant selected on LRP2 CR89; also called RAPv2A d3; RAP v2A; not shown: N-terminal hexahistidine and S-peptide tags of pET30(+)a
B10: RAP d3 K256A, K270E (ligand, human, UniProt P30533 235-353, looked up)
chain: LDRLRRVSHQGYSTEAEFEEPRVIDLWDLAQSANLTDKELEAFREELKHFEAKIEAHNHYQKQLEIAHEELRHAESVGDGERVSRSREKHALLEGRTKELGYTVKKHLQDLSGRISRAR
notes: range 201-319 (mature RAP numbering); Forward mutant of m1; same construct; also called RAP K256A, K270E; not shown: N-terminal hexahistidine and S-peptide tags of pET30(+)a
B11: MegaRAP1 d3 T213S revertant (designed binder)
chain: LDRLRRVSHQGYSTEAKFEEPRVIDLWDLAQSANLTDKELEAFREELKYFKAKIEAHNHYQKQLEIAHEELRHAESVGDGERVSRSREKHALLEGRTKELGYTVKKHLQDLSGRISRAR
B12: MegaRAP1 d3 K251E, E270K double revertant (designed binder)
chain: LDRLRRVSHQGYTTEAKFEEPRVIDLWDLAQSANLTDKELEAFREELKYFEAKIEAHNHYQKQLEIAHEKLRHAESVGDGERVSRSREKHALLEGRTKELGYTVKKHLQDLSGRISRAR
B13: MegaRAP1 d3 E270K revertant (designed binder)
chain: LDRLRRVSHQGYTTEAKFEEPRVIDLWDLAQSANLTDKELEAFREELKYFKAKIEAHNHYQKQLEIAHEKLRHAESVGDGERVSRSREKHALLEGRTKELGYTVKKHLQDLSGRISRAR
B14: MegaRAP1 d3 A256K, E270K double revertant (designed binder)
chain: LDRLRRVSHQGYTTEAKFEEPRVIDLWDLAQSANLTDKELEAFREELKYFKAKIEKHNHYQKQLEIAHEKLRHAESVGDGERVSRSREKHALLEGRTKELGYTVKKHLQDLSGRISRAR
B15: MegaRAP1 d3 K217E revertant (designed binder)
chain: LDRLRRVSHQGYTTEAEFEEPRVIDLWDLAQSANLTDKELEAFREELKYFKAKIEAHNHYQKQLEIAHEELRHAESVGDGERVSRSREKHALLEGRTKELGYTVKKHLQDLSGRISRAR
B16: LRP2 CR2728 (receptor, human, UniProt P98164 3552-3631, looked up)
chain: FCRLGQFQCSDGNCTSPQTLCNAHQNCPDGSDEDRLLCENHHCDSNEWQCANKRCIPESWQCDTFNDCEDNSDEDSSHCA
notes: domain: CR2728; not shown: N-terminal hexahistidine and S-peptide tags of pET30(+)a
B17: LRP2 CR3536 (receptor)
chain: not shown
notes: domain: CR3536; the primers (LRP2CR35F, LRP2CR36R) fit CR3536; not shown: N-terminal hexahistidine and S-peptide tags of pET30(+)a

Each binder was assayed against B9 (assay: solid-phase binding assay: LRP2 CR89 variant coated on the plate, d3 ligand in solution, anti-RAP detection, absorbance).
Description: (§1) RAP ligands were then incubated with the immobilized receptor at a range of concentrations for 2 hours in the above blocking buffer supplemented with 0.05% Tween-20 at room temperature. Control wells contained no added ligand. As an additional control, to determine whether the absence of calcium affected binding, 10 mM EGTA was included in the incubation medium for some samples. Wells were washed with TBSTC and bound ligands detected with polyclonal anti-RAP (BP41/42, 1:1,000, BioMarin). Excess primary antibody was removed and wells washed before incubation with the secondary antibody, HRP-conjugated goat anti rabbit IgG (Bio-Rad). After washing, TMB substrate solutions (Bio-Rad) were added to detect HRP. Color development was stopped with 1N HCl. Absorption at 450 nm was measured with a microplate spectrophotometer (Molecular Devices). Data were plotted and Kd values derived by non-linear regression with the assumption of single-site binding (GraphPad Prism).
One premise of this work was that amino acids at A, C, A′ and C′ within the calcium-binding loops of a CR pair were key determinants of binding affinity for RAP and would be similarly important for binding of RAP variants. […] Binding to both RAP d3 and MegaRAP1 d3 were measured for each LRP2 CR89 mutant by solid-phase assay. […]

Q: Does B1 bind?
A: no binding (tested: 100 nM)

Q: Does B2 bind?
A: no binding (tested: 100 nM)

These binders were tested against T1, LRP1 CR3-5 (human) (assay: solid-phase assay, coated CR protein).
T1 construct: range 852-973; also called L1 CR3-5; LRP1 CR3-S [sic]
Description: Wells were washed with TBSTC and bound ligands detected with polyclonal anti-RAP (BP41/42, 1:1,000, BioMarin). Excess primary antibody was removed and wells washed before incubation with the secondary antibody, HRP-conjugated goat anti rabbit IgG (Bio-Rad). After washing, TMB substrate solutions (Bio-Rad) were added to detect HRP. Color development was stopped with 1N HCl. Absorption at 450 nm was measured with a microplate spectrophotometer (Molecular Devices). Data were plotted and Kd values derived by non-linear regression with the assumption of single-site binding (GraphPad Prism).
Next, the binding of RAP d3 and MegaRAP1 d3 proteins to LRP1 CR3-5 and LRP2 CR89 was assessed. […] In all cases, 10 mM EGTA prevented binding of both RAP d3 and MegaRAP1 d3 to CR proteins. Since calcium was the only divalent metal ion present in the binding buffer, this observation is consistent with both RAP d3 and MegaRAP1 d3 binding to calcium-loaded CR pairs. […] Therefore, wild-type RAP d3 and MegaRAP1 d3 have inverted binding preferences for these two receptor fragments.

T1 sequence (Q07954 852-973): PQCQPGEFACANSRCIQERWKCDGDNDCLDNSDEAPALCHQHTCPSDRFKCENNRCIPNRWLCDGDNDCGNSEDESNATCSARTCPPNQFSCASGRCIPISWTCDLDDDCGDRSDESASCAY

Q: B3 was tested. Which “% max binding” value did it give?
A: 4%

Q: How did the “% max binding” value turn out when B4 was run?
A: 2%

Q: With B5 as the binder, how does the “% max binding” value read?
A: 91%

Q: For B6, which “% max binding” value is on record?
A: 100%

Q: B7 was tested. Which “% max binding” value did it give?
A: 4%

Q: How did the “% max binding” value turn out when B8 was run?
A: 90%

Q: How did the “% max binding” value turn out when B9 was run?
A: 4%

Q: How did the “% max binding” value turn out when B10 was run?
A: 2%

Q: How did the “% max binding” value turn out when B11 was run?
A: 2%

Q: How did the “% max binding” value turn out when B12 was run?
A: 16%

Q: How did the “% max binding” value turn out when B13 was run?
A: 85%

Q: With B14 as the binder, how does the “% max binding” value read?
A: 93%

Q: With B15 as the binder, how does the “% max binding” value read?
A: 2%

The binders below were run against B9 (assay: solid-phase binding assay: CR protein coated on the plate, d3 ligand at 80 nM, anti-RAP detection, blank-corrected absorbance).
Description: (§2) RAP d3, MegaRAP1 d3, VRAP2 d3, MatRAP1d3 and MatRAP2 d3 were each incubated at 80 nM concentrations with LRP1 CR3-5, LRP6 CR12, LRP6 CR23, LRP6 CR1-3, LRP2 CR89, LRP2 CR2728, LRP2 CR3031, LRP2 CR3435, LRP2 CR34-36, VLDLR CR78, VLDLR CR6-8, MAT CR12, MAT CR23 and MAT CR34. Samples were tested twice, in duplicate, and values combined. Means and standard deviations were then calculated. Blank values obtained from wells incubated in the absence of ligand were used to correct absorbance data.
as §1, with “Solid phase binding assays—Purified, refolded CR protein (1 μg) was bound to Nunc Maxisorp™ 96-well plates in TBS pH 8 supplemented with 5 mM CaCl₂ (TBSC) overnight at 4° C. Wells were washed with TBSC and then blocked with TBSC containing 2% bovine serum albumin (BSA). RAP ligands” for “RAP ligands”
(§3) The apparent dissociation constant for binding of VRAP1d3 to VLDLR CR78 was determined to be […]. We then compared binding of RAP d3, MegaRAP1 d3, VRAP1d3, MatRAP1d3 and MatRAP2 d3, each at a concentration of 80 nM, to fourteen CR pairs or triplets, including LRP1 CR3-5, LRP2 CR89, LRP2 CR2728, LRP2 CR3031, LRP2 CR34-36, LRP2 CR3536, VLDLR CR78, VLDLR CR6-8, LRP6 CR1-3, LRP6 CR12, LRP6 CR23, MAT CR12, MAT CR23 and MAT CR34 (FIG. 7).

Q: Does B16 bind?
A: no binding (tested: 80 nM)

Q: Does B17 bind?
A: no binding (tested: 80 nM)

Each binder was assayed against T2, RAP d3 (wild-type third domain of the receptor-associated protein) (human, UniProt P30533 235-353) in the same assay as above.
T2 construct: range 201-319 (mature RAP numbering); Expressed in E. coli from pET30(+)a; also called wild-type RAP d3; not shown: N-terminal hexahistidine and S-peptide tags of pET30(+)a
T2 sequence (looked up): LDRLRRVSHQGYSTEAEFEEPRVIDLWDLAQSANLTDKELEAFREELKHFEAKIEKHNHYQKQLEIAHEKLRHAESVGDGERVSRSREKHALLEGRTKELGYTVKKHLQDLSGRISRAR
Description: as §2
as §1, with “Solid phase binding assays—Purified, refolded CR protein (1 μg) was bound to Nunc Maxisorp™ 96-well plates in TBS pH 8 supplemented with 5 mM CaCl₂ (TBSC) overnight at 4° C. Wells were washed with TBSC and then blocked with TBSC containing 2% bovine serum albumin (BSA). RAP ligands” for “RAP ligands”
as §3

Q: Does B16 bind?
A: no binding (tested: 80 nM)
